# Data taken from article PMC7884425.
# Tests used:
# [1] = target: full-length human PARP1 (activated by DNA) (human), P09874; experiment: ITC; HPF1 in the syringe; full-length PARP1 0.02 mM pre-incubated with 0.06 mM DNA hairpin at 4 °C for at least 60 min, in the cell; 25 °C; 20 mM Tris-pH 8.0, 150 mM NaCl, 1 mM TCEP, 1 mM MgCl2; details: remark: other sources report otherwise
# [2] = target: full-length human PARP1 (activated by DNA) (human), P09874; experiment: ITC; in the presence of DNA; details: natural protein; chains chain; remark: other sources report otherwise
# Chain of full-length human PARP1 (activated by DNA) (human), P09874 (P09874 whole entry): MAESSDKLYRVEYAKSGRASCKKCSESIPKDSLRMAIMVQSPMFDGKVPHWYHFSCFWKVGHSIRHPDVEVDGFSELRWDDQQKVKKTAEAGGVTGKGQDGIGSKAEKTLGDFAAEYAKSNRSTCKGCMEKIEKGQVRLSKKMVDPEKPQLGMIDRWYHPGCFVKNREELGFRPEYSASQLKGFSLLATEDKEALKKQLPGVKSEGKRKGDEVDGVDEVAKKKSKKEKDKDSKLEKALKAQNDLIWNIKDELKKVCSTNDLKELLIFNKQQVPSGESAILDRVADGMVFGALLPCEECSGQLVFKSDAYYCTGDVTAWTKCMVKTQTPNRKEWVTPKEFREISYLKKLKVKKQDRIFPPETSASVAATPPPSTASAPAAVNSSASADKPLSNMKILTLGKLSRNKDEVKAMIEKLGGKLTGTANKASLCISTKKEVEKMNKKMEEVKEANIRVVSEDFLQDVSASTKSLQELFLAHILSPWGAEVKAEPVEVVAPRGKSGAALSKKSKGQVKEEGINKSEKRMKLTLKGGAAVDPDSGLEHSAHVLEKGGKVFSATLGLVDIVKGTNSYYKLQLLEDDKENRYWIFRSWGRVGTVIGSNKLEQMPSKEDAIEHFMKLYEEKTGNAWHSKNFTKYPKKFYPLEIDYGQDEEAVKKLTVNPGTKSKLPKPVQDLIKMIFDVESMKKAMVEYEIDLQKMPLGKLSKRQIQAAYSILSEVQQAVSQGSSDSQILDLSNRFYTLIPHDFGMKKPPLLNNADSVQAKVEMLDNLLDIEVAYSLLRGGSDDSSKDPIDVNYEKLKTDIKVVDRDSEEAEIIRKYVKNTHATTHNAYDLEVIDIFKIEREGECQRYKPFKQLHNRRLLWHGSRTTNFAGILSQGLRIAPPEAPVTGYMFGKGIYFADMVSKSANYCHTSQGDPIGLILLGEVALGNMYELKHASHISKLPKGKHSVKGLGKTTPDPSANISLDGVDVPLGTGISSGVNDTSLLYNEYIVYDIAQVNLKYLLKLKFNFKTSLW
binder,measurement,setting,value
"human HPF1 (histone PARylation factor 1), wild-type, Q9NWY4 1-346 (natural protein) MVGGGGKRRPGGEGPQCEKTTDVKKSKFCEADVSSDLRKEVENHYKLSLPEDFYHFWKFCEELDPEKPSDSLSASLGLQLVGPYDILAGKHKTKKKSTGLNFNLHWRFYYDPPEFQTIIIGDNKTQYHMGYFRDSPDEFPVYVGINEAKKNCIIVPNGDNVFAAVKLFLTKKLREITDKKKINLLKNIDEKLTEAARELGYSLEQRTVKMKQRDKKVVTKTFHGAGLVVPVDKNDVGYRELPETDADLKRICKTIVEAASDEERLKAFAPIQEMMTFVQFANDECDYGMGLELGMDLFCYGSHYFHKVAGQLLPLAYNLLKRNLFAEIIEEHLANRSQENIDQLAA",Kd,[1],2800 nM
same,Ka,[2],330000 M⁻¹
